Tests used:
[1] = target: T1, synthetic gamma-chain peptide ATL(K)SRM with K changed to serine
T1 chain: ATLSSRM

[2] = target: T2, WT-Fbg (human fibrinogen, SigmaAldrich), P02671
T2 chain 1: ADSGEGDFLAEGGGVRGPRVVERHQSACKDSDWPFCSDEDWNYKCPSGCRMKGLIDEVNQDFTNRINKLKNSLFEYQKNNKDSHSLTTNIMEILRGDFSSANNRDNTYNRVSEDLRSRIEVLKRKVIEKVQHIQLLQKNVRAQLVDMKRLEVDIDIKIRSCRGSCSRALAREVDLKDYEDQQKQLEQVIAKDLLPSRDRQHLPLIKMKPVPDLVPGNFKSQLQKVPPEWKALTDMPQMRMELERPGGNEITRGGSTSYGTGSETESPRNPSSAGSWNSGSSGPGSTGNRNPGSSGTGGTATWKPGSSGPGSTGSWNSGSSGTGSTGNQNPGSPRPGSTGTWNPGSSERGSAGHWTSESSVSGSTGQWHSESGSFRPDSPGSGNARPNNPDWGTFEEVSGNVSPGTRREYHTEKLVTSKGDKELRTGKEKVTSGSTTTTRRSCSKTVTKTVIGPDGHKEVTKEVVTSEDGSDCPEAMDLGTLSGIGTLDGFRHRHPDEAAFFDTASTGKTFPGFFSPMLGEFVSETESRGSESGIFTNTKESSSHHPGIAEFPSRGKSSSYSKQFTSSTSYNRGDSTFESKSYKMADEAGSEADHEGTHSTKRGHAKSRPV
T2 chain 2: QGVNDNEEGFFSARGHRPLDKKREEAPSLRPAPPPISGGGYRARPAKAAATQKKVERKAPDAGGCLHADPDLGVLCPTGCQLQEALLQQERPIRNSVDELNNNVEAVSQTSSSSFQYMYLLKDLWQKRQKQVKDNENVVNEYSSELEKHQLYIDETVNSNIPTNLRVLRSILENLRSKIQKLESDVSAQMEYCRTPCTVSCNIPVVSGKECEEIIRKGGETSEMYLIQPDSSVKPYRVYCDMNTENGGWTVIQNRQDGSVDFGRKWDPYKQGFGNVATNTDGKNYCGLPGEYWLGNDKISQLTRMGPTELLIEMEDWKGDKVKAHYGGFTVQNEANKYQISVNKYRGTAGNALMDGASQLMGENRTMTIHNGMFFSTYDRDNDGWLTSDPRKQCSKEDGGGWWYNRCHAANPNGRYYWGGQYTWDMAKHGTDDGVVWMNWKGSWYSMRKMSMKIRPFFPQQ
T2 chain 3: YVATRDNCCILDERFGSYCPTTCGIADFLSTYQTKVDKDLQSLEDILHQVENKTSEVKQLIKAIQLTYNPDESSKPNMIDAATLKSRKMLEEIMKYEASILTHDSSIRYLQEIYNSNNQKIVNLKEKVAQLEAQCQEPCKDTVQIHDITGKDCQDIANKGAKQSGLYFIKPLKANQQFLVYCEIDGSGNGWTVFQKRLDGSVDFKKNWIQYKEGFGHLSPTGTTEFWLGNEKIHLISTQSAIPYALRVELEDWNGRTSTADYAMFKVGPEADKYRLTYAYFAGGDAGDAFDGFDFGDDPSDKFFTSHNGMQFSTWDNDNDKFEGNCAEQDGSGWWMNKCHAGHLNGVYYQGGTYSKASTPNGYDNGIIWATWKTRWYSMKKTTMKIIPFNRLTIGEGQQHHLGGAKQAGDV

[3] = target: T3, His-rFbg (recombinant fibrinogen, gamma-chain K88H, K111H, K382H, K399H)
T3 chain 1: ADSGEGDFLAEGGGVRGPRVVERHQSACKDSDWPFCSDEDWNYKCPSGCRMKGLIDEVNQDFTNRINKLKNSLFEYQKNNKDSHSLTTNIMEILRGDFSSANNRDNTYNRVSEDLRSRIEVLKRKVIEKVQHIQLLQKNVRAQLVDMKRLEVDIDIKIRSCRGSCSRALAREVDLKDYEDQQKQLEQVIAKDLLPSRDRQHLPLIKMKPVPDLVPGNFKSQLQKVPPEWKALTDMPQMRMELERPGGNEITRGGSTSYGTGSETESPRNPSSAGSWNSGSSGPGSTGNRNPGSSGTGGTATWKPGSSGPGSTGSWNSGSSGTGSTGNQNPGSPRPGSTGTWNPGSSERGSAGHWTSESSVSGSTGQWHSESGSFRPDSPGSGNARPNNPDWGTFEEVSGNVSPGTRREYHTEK
T3 chain 2: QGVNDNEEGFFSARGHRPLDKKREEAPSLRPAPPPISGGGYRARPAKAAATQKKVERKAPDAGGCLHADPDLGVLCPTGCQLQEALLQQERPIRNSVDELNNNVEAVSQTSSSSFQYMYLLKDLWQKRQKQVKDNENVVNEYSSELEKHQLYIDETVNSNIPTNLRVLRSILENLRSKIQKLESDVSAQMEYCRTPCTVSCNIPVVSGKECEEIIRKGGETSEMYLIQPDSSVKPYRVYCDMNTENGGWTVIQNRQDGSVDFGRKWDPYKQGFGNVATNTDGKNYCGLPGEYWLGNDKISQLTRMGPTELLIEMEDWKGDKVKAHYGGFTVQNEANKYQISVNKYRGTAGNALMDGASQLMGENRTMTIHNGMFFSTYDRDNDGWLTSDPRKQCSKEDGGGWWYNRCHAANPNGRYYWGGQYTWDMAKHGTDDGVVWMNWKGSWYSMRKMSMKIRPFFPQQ
T3 chain 3: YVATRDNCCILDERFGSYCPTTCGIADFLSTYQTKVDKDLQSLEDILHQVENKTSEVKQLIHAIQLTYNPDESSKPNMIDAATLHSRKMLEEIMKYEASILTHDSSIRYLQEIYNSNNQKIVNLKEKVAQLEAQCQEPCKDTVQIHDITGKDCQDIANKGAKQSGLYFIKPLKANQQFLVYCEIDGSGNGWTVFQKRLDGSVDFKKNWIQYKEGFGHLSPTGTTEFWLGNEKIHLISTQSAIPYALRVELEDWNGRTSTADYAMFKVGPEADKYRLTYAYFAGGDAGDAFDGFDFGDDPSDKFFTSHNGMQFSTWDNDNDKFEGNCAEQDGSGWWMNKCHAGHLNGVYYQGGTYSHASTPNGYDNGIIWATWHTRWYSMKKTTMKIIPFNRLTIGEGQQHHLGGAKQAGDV

[4] = target: T4, synthetic gamma-chain peptide QLI(K)AIQ with K changed to serine
T4 chain: QLISAIQ

B1: human plasmin (Merck) (protein)
chain: KVYLSECKTGNGKNYRGTMSKTKNGITCQKWSSTSPHRPRFSPATHPSEGLEENYCRNPDNDPQGPWCYTTDPEKRYDYCDILECEEECMHCSGENYDGKISKTMSGLECQAWDSQSPHAHGYIPSKFPNKNLKKNYCRNPDRELRPWCFTTDPNKRWELCDIPRCTTPPPSSGPTYQCLKGTGENYRGNVAVTVSGHTCQHWSAQTPHTHNRTPENFPCKNLDENYCRNPDGKRAPWCHTTNSQVRWEYCKIPSCDSSPVSTEQLAPTAPPELTPVVQDCYHGDGQSYRGTSSTTTTGKKCQSWSSMTPHRHQKTPENYPNAGLTMNYCRNPDADKGPWCFTTDPSVRWEYCNLKKCSGTEASVVAPPPVVLLPDVETPSEEDCMFGNGKGYRGKRATTVTGTPCQDWAAQEPHRHSIFTPETNPRAGLEKNYCRNPDGDVGGPWCYTTNPRKLYDYCDVPQCAAPSFDCGKPQVEPKKCPGRVVGGCVAHPHSWPWQVSLRTRFGMHFCGGTLISPEWVLTAAHCLEKSPRPSSYKVILGAHQEVNLEPHVQEIEVSRLFLEPTRKDIALLKLSSPAVITDKVIPACLPSPNYVVADRTECFITGWGETQGTFGAGLLKEAQLPVIENKVCNRYEFLNGRVQSTELCAGHLAGGTDSCQGDSGGPLVCFEKDKYILQGVTSWGLGCARPNKPGVYVRVSRFVTWIEGVMRNN
[1]
  plasmin cleavage efficiency of synthetic peptide, HPLC: Peptide sequences including S instead of K showed a significant reduction in cleavage efficiency compared to the original sequences
[2]
  plasmin cleavage sites in the gamma-chain, high-resolution ESI-MS after 24 h digest in solution (0.5 U/mL plasmin): the 4 different cleavage sites K88, K111, K382, K399 in the WT could be detected
[3]
  plasmin cleavage analysis of target sites (peptide fragments detected by MS): Position 382 shows a partial cleavage for the mutants (both cleaved and non-cleaved peptides detected)
  plasmin cleavage at the mutated gamma-chain sites 88, 111, 382, 399, high-resolution ESI-MS after 24 h digest in solution: no cleavage was detected in either of the two mutants for all 4 mutations
[4]
  plasmin cleavage efficiency of synthetic peptide, HPLC: Peptide sequences including S instead of K showed a significant reduction in cleavage efficiency compared to the original sequences

Reference: patent US20260001937A1, “NOVEL RECOMBINANT FIBRINOGEN VARIANTS FOR FIBRIN SEALANTS FOR SURGICAL WOUND CARE” (Julius-Maximilians-Universität Würzburg, priority 2022, published 2026)
